The values that follow come from publication PMC7899134 (Cell, 2021).

The chains are these.
T1: human IL-23R (1–309) (human, UniProt Q5VWK5-1 24-309)
T1 sequence (looked up): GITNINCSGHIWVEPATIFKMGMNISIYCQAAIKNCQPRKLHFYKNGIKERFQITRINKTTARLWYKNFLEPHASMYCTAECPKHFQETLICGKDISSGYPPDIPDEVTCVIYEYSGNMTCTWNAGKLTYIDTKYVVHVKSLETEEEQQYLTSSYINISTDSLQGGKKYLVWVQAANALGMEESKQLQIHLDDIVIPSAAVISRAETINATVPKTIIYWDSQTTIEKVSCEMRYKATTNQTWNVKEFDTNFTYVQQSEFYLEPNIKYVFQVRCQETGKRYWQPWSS

T2: IL-23 (IL-23p19/p40), crystallography construct (human, UniProt Q9NPF7 20-189; P29460 23-328)
T2 sequence (looked up) 1: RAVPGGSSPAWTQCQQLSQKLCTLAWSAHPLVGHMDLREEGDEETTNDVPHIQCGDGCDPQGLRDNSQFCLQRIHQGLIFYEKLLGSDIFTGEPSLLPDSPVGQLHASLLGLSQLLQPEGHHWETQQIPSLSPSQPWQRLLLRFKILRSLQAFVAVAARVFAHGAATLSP
T2 sequence (looked up) 2: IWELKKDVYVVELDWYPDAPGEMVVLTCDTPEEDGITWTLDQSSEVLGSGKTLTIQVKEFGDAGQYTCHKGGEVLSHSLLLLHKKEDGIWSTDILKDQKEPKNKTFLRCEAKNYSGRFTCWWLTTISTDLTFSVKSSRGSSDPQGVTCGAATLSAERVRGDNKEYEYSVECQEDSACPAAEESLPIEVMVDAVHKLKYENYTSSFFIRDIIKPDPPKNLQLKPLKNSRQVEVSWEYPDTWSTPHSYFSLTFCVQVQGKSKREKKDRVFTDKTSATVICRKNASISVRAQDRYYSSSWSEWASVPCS

B1: IL-23 (IL-23p19 and p40), biotinylated, SPR construct (complex)
chain 1: PAWTQCQQLSQKLCTLAWSAHPLVGHMDLREEGDEETTNDVPHIQCGDGCDPQGLRDNSQFCLQRIHQGLIFYEKLLGSDIFTGEPSLLPDSPVGQLHASLLGLSQLLQPEGHHWETQQIPSLSPSQPWQRLLLRFKILRSLQAFVAVAARVFAHGAATLSP
chain 2: T2 sequence (looked up) 2
modifications: biotin on the AviTag (BirA ligase)
B2: IL-23 (IL-23p19 28–189 / p40 23–328 with BirA substrate peptide), T. ni expressed (complex, human)
chain 1: B1 chain 1
chain 2: T2 sequence (looked up) 2
modifications: biotinylated in vitro for the yeast staining
B3: human p40 (23–328) with BirA substrate peptide, T. ni expressed (natural protein, UniProt P29460 23-328, looked up)
chain: T2 sequence (looked up) 2
B4: human IL-23p19 (28–189), T. ni expressed (natural protein, UniProt Q9NPF7 28-189, looked up)
chain: B1 chain 1
B5: human p40 (23-328), crystallography construct (natural protein)
chain: T2 sequence (looked up) 2
B6: human p40 (23–328) alone, biotinylated, SPR construct (natural protein, UniProt P29460 23-328, looked up)
chain: T2 sequence (looked up) 2
modifications: biotin on the AviTag (BirA ligase)
B7: human IL-23p19 (20-189), crystallography construct (natural protein, UniProt Q9NPF7 20-189, looked up)
chain: T2 sequence (looked up) 1
B8: human IL-23R (1–315), crystallography construct (domain or fragment, UniProt Q5VWK5-1 24-315, looked up)
chain: GITNINCSGHIWVEPATIFKMGMNISIYCQAAIKNCQPRKLHFYKNGIKERFQITRINKTTARLWYKNFLEPHASMYCTAECPKHFQETLICGKDISSGYPPDIPDEVTCVIYEYSGNMTCTWNAGKLTYIDTKYVVHVKSLETEEEQQYLTSSYINISTDSLQGGKKYLVWVQAANALGMEESKQLQIHLDDIVIPSAAVISRAETINATVPKTIIYWDSQTTIEKVSCEMRYKATTNQTWNVKEFDTNFTYVQQSEFYLEPNIKYVFQVRCQETGKRYWQPWSSLFFHKT

In assay [1] the target is T3, human IL-12Rβ1 D1–D2 (25–239) (human, UniProt P42701 25-239). Briefly: SPR. For orientation: SPR reads the build-up and loss of mass on a sensor chip optically.
Assay [2] has as its target affi-IL-12Rβ1 D1–D5 (25–542) Tyr109Ser Gln132Leu (human, UniProt P42701 25-542, Tyr109Ser | Gln132Leu). Briefly: cryo-EM structure.
The target of assay [3] is T1, human IL-23R (1–309). Briefly: cryo-EM structure.
Assay [4] concerns the target T3, human IL-12Rβ1 D1–D2 (25–239). As to the kind of experiment: crystal structure.
Assay [5] concerns the target affi-IL-12Rβ1 D1–D2 (25–239) Tyr109Ser Gln132Leu (human, UniProt P42701 25-239, Tyr109Ser | Gln132Leu). As to the kind of experiment: SPR.
Assay [6] addresses B8. Briefly: crystal structure.
The target in assay [7] is T2, IL-23 (IL-23p19/p40), crystallography …. As to the kind of experiment: crystal structure.
Assay [8] deals with B5. As to the kind of experiment: crystal structure.

Take B1: the binding result in assay [1] is listed as “binds”.
For B2, in assay [2], the binding result was “binds”.
Take B3: in assay [2], the binding result is “binds”.
In the case of B4, the binding result in assay [3] was “binds”.
In the case of B5, the binding result in assay [4] is on record as “binds”.
In the case of B6, the binding result in assay [5] and in assay [1] was “binds” each time.
On to B7, for which the binding result in assay [6] is reported as “binds”.
For the molecule B8, the binding result in assay [7] and in assay [8] was “binds” in each case.
